Measurements: PMC12416549 (2024)
Positions count from the first letter of the chain named. Names and notes keep the numbering of the source.

T1: TNFR1 (Homo sapiens, UniProt P19438)
T1 chain: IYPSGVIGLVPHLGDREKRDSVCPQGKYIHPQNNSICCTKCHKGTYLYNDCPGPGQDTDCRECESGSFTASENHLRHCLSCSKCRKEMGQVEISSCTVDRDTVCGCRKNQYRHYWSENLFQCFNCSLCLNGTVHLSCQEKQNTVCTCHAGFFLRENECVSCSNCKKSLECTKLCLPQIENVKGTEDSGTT

B1: K15F (designed binder)
chain: SMEEEVEKAAKEYEFKKKEAIEKHLEKLKAKDKEAAERFLKELEEAAKEYAKDEAKTMSEEEAKRRAKKYKEKVLLSELSEEEQKEIKEAEEKLVRTILKYVEEAAK
B2: E81N (designed binder)
chain: B1 chain with F15K, E81N
B3: D53G (designed binder)
chain: B1 chain with F15K, D53G
B4: S59E (designed binder)
chain: B1 chain with F15K, S59E
B5: E7H (designed binder)
chain: B1 chain with E7H, F15K
B6: K69V (designed binder)
chain: B1 chain with F15K, K69V
B7: E104H (designed binder)
chain: B1 chain with F15K, E104H
B8: E42K (designed binder)
chain: B1 chain with F15K, E42K
B9: K64D (designed binder)
chain: B1 chain with F15K, K64D
B10: K56D (designed binder)
chain: B1 chain with F15K, K56D
B11: K107V (designed binder)
chain: B1 chain with F15K, K107V
B12: K23F (designed binder)
chain: B1 chain with F15K, K23F
B13: E81T (designed binder)
chain: B1 chain with F15K, E81T
B14: K31S (designed binder)
chain: B1 chain with F15K, K31S
B15: K15M (designed binder)
chain: B1 chain with F15M
B16: Y50H (designed binder)
chain: B1 chain with F15K, Y50H
B17: L99D (designed binder)
chain: B1 chain with F15K, L99D
B18: K64F (designed binder)
chain: B1 chain with F15K, K64F
B19: K88M (designed binder)
chain: B1 chain with F15K, K88M
B20: A55T (designed binder)
chain: B1 chain with F15K, A55T
B21: Y70W (designed binder)
chain: B1 chain with F15K, Y70W
B22: A106H (designed binder)
chain: B1 chain with F15K, A106H
B23: K17E (designed binder)
chain: B1 chain with F15K, K17E
B24: E81K (designed binder)
chain: B1 chain with F15K, E81K
B25: K27I (designed binder)
chain: B1 chain with F15K, K27I
B26: L40P (designed binder)
chain: B1 chain with F15K, L40P
B27: Q84K (designed binder)
chain: B1 chain with F15K, Q84K
B28: A46F (designed binder)
chain: B1 chain with F15K, A46F
B29: K68V (designed binder)
chain: B1 chain with F15K, K68V
B30: E5R (designed binder)
chain: B1 chain with E5R, F15K
B31: K29V (designed binder)
chain: B1 chain with F15K, K29V
B32: E86N (designed binder)
chain: B1 chain with F15K, E86N
B33: E62D (designed binder)
chain: B1 chain with F15K, E62D
B34: E14T (designed binder)
chain: B1 chain with E14T, F15K
B35: T57I (designed binder)
chain: B1 chain with F15K, T57I
B36: E4V (designed binder)
chain: B1 chain with E4V, F15K
B37: K23Q (designed binder)
chain: B1 chain with F15K, K23Q
B38: E91V (designed binder)
chain: B1 chain with F15K, E91V
B39: K73N (designed binder)
chain: B1 chain with F15K, K73N
B40: Y50I (designed binder)
chain: B1 chain with F15K, Y50I
B41: Y50K (designed binder)
chain: B1 chain with F15K, Y50K
B42: R66C (designed binder)
chain: B1 chain with F15K, R66C
B43: E60D (designed binder)
chain: B1 chain with F15K, E60D
B44: E37V (designed binder)
chain: B1 chain with F15K, E37V
B45: E78D (designed binder)
chain: B1 chain with F15K, E78D
B46: E34F (designed binder)
chain: B1 chain with F15K, E34F
B47: S1R (designed binder)
chain: B1 chain with S1R, F15K
B48: V102Q (designed binder)
chain: B1 chain with F15K, V102Q
B49: E3H (designed binder)
chain: B1 chain with E3H, F15K
B50: E14R (designed binder)
chain: B1 chain with E14R, F15K
B51: K69Y (designed binder)
chain: B1 chain with F15K, K69Y
B52: E12W (designed binder)
chain: B1 chain with E12W, F15K
B53: K23N (designed binder)
chain: B1 chain with F15K, K23N
B54: S80Q (designed binder)
chain: B1 chain with F15K, S80Q
B55: E81R (designed binder)
chain: B1 chain with F15K, E81R
B56: R96A (designed binder)
chain: B1 chain with F15K, R96A
B57: A35R (designed binder)
chain: B1 chain with F15K, A35R
B58: E83Q (designed binder)
chain: B1 chain with F15K, E83Q
B59: S59M (designed binder)
chain: B1 chain with F15K, S59M

Molecular target: T1, TNFR1
Assay: yeast display SC50

| apparent Kd (screen) | Binder |
| --- | --- |
| 0.446 nM | B1 |
| 0.49 nM | B2 |
| 12.5 nM | B3 |
| 0.956 nM | B4 |
| 4.39 nM | B5 |
| 0.49 nM | B6 |
| 0.446 nM | B7 |
| 0.368 nM | B8 |
| 1.05 nM | B9 |
| 7.78 nM | B10 |
| 2.05 nM | B11 |
| 0.79 nM | B12 |
| 0.718 nM | B13 |
| 0.956 nM | B14 |
| 0.539 nM | B15 |
| 13.8 nM | B16 |
| 11.4 nM | B17 |
| 0.49 nM | B18 |
| 0.446 nM | B19 |
| 10.4 nM | B20 |

| apparent Kd (screen) | Binder |
| --- | --- |
| 8.56 nM | B21 |
| 1.54 nM | B22 |
| 1.05 nM | B23 |
| 0.593 nM | B24 |
| 1.05 nM | B25 |
| 10.4 nM | B26 |
| 7.07 nM | B27 |
| 16.7 nM | B28 |
| 1.27 nM | B29 |
| 0.446 nM | B30 |
| 0.869 nM | B31 |
| 0.653 nM | B32 |
| 0.446 nM | B33 |
| 11.4 nM | B34 |
| 0.49 nM | B35 |
| 1.05 nM | B36 |
| 0.446 nM | B37 |
| 7.07 nM | B38 |
| 13.8 nM | B39 |
| 0.0802 nM | B40 |

| apparent Kd (screen) | Binder |
| --- | --- |
| 3.99 nM | B41 |
| 5.84 nM | B42 |
| 1.27 nM | B43 |
| 0.539 nM | B44 |
| 1.86 nM | B45 |
| 0.446 nM | B46 |
| 0.869 nM | B47 |
| 0.208 nM | B48 |
| 1.86 nM | B49 |
| 5.31 nM | B50 |
| 2.48 nM | B51 |
| 1.54 nM | B52 |
| 0.49 nM | B53 |
| 1.27 nM | B54 |
| 0.49 nM | B55 |
| 3 nM | B56 |
| 0.539 nM | B57 |
| 0.593 nM | B58 |
| 1.69 nM | B59 |
